The target of one series is Nedd8-AMC (UniProt Q15843).
The test system of series [1] is CSN6, soluble MPN domain construct of Example 2.

Here are results for 6 substances from patent publication US20160083712.

Chain of CSN6, soluble MPN domain construct of Example 2 (chain, as listed by the source): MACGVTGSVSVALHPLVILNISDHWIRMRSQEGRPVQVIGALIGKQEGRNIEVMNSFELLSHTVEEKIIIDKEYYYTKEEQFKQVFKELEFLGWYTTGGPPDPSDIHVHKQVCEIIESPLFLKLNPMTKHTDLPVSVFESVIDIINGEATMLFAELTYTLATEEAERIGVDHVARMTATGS
Chain of Nedd8-AMC (Q15843 whole entry, looked up, the tested form may be a part): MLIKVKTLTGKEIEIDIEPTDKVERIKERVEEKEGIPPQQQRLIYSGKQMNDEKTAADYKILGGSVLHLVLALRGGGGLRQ
Chain of CSN51-257 R106T (human CSN5 residues 1-257 with Arg106 substituted by threonine) (chain, as listed by the source R106T): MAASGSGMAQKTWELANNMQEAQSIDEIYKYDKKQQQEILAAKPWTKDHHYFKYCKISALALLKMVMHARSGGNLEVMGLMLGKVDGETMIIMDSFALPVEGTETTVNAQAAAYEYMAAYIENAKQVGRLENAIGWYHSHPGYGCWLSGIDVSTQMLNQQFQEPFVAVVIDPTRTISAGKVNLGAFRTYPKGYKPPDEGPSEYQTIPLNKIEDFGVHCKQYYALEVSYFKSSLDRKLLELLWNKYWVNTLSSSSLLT
Chain of GST-CSN51-257 R106T (GST-tagged human CSN5 residues 1-257 with Arg106 substituted by threonine) (chain, as listed by the source R106T): as above
Chain of CSN5 R106T, activatory mutant form, construct of Example 2 (chain, as listed by the source R106T): as above
Chain of GST-CSN51-257 wild type (GST-tagged human CSN5 residues 1-257) (chain, as listed by the source): as the sequence (chain, as listed by the source R106T) above, with T106R counted along it
Chain of CSN51-257 wild type (human CSN5 residues 1-257, GST tag cleaved off) (chain, as listed by the source): as the sequence (chain, as listed by the source R106T) above, with T106R counted along it
Chain of CSN5 WT, soluble MPN domain construct of Example 2 (chain, as listed by the source): as the sequence (chain, as listed by the source R106T) above, with T106R counted along it

With “CSN51-257 wild type (human CSN5 residues 1-257, GST tag cleaved off)”, the “isopeptidase activity (hydrolysis of Nedd8-AMC, fluorescence)” value with Nedd8-AMC was “the CSN51-257 WT form is void of isopeptidase activity”. On to “GST-CSN51-257 R106T (GST-tagged human CSN5 residues 1-257 with Arg106 substituted by threonine)”, for which the “isopeptidase activity (hydrolysis of LRGG-AMC, fluorescence)” value in the series with LRGG-AMC is “the R106T substitution is sufficient to restore constitutive isopeptidase activity against two isopeptidase substrates, LRGG-AMC and Nedd8-AMC”.

On to “GST-CSN51-257 wild type (GST-tagged human CSN5 residues 1-257)”, for which the “isopeptidase activity (hydrolysis of LRGG-AMC, fluorescence)” value in the series with LRGG-AMC is given as “the CSN51-257 WT form is void of isopeptidase activity”. With “CSN5 WT, soluble MPN domain construct of Example 2”, the “CSN5 isopeptidase activity (substrates LRGG-AMC, Nedd8-AMC, Nedd8-cullin 1)” value in series [1] is “CSN6 is able to significantly enhance CSN5 isopeptidase activity”.

With “CSN51-257 R106T (human CSN5 residues 1-257 with Arg106 substituted by threonine)”, the “isopeptidase activity (hydrolysis of Nedd8-AMC, fluorescence)” value with Nedd8-AMC was “the R106T substitution is sufficient to restore constitutive isopeptidase activity against two isopeptidase substrates, LRGG-AMC and Nedd8-AMC”. Take “CSN5 R106T, activatory mutant form, construct of Example 2”: in series [1], the “CSN5 isopeptidase activity (substrates LRGG-AMC, Nedd8-AMC, Nedd8-cullin 1)” value is “this effect is consistently more marked in the context of the activatory mutant form of CSN5, CSN5 R106T than the WT form”.
